In US20260193342A1 (ZOETIS SERVICES, published 2026):

Target: canine FcRn complex (FcRn-α subunit and β-microglobulin) (canine, UniProt A0A8I3PFR8 25-347, biotin on the BAP tag by BirA (Example 5 only))
Test: SPR (Biacore), biotinylated FcRn on SA chip, IgG flowed, pH 6, 15 C

Chain of canine FcRn complex (FcRn-α subunit and β-microglobulin) (A0A8I3PFR8 entry or part of it, one chain of several): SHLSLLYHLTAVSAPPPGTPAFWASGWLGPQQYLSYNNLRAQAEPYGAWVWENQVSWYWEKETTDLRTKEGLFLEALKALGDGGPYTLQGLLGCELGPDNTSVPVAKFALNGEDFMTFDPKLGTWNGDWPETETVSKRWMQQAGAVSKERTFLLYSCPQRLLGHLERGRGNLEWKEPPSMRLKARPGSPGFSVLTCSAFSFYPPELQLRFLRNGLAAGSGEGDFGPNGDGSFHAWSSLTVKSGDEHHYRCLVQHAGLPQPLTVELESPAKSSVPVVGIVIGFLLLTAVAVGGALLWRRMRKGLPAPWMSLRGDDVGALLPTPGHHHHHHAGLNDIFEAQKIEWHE

Row | Kd [nM] | Binder
1 | 12.3 | mAb1, caninized anti-IL31 antibody 34D03, canine IgGA, N434H (antibody) chain 1: EVQLVESGGDLVKPGGSLRLSCVASGFTFSNYGMSWVRQAPGKGLQWVATISYGGSYTYYPDNIKGRFTISRDNAKNTLYLQMNSLRAEDTAMYYCVRGYGYDTMDYWGQGTLVTVSSASTTAPSVFPLAPSCGSTSGSTVALACLVSGYFPEPVTVSWNSGSLTSGVHTFPSVLQSSGLHSLSSMVTVPSSRWPSETFTCNVVHPASNTKVDKPVFNECRCTDTPPCPVPEPLGGPSVLIFPPKPKDILRITRTPEVTCVVLDLGREDPEVQISWFVDGKEVHTAKTQSREQQFNGTYRVVSVLPIEHQDWLTGKEFKCRVNHIDLPSPIERTISKARGRAHKPSVYVLPPSPKELSSSDTVSITCLIKDFYPPDIDVEWQSNGQQEPERKHRMTPPQLDEDGSYFLYSKLSVDKSRWQQGDPFTCAVMHETLQHHYTDLSLSHSPGK chain 2: EIVMTQSPASLSLSQEEKVTITCKASQSVSFAGTGLMHWYQQKPGQAPKLLIYRASNLEAGVPSRFSGSGSGTDFSFTISSLEPEDVAVYYCQQSREYPWTFGQGTKLEIKRNDAQPAVYLFQPSPDQLHTGSASVVCLLNSFYPKDINVKWKVDGVIQDTGIQESVTEQDKDSTYSLSSTLTMSSTEYLSHELYSCEITHKSLPSTLIKSFQRSEC
2 | 19.9 | mAb1, caninized anti-IL31 antibody 34D03, canine IgGA, N434W (antibody, VH/VL: the caninized 34D03 entries of the listing; also called ID No. 6; copies: 2 + 2) heavy: EVQLVESGGDLVKPGGSLRLSCVASGFTFSNYGMSWVRQAPGKGLQWVATISYGGSYTYYPDNIKGRFTISRDNAKNTLYLQMNSLRAEDTAMYYCVRGYGYDTMDYWGQGTLVTVSSASTTAPSVFPLAPSCGSTSGSTVALACLVSGYFPEPVTVSWNSGSLTSGVHTFPSVLQSSGLHSLSSMVTVPSSRWPSETFTCNVVHPASNTKVDKPVFNECRCTDTPPCPVPEPLGGPSVLIFPPKPKDILRITRTPEVTCVVLDLGREDPEVQISWFVDGKEVHTAKTQSREQQFNGTYRVVSVLPIEHQDWLTGKEFKCRVNHIDLPSPIERTISKARGRAHKPSVYVLPPSPKELSSSDTVSITCLIKDFYPPDIDVEWQSNGQQEPERKHRMTPPQLDEDGSYFLYSKLSVDKSRWQQGDPFTCAVMHETLQWHYTDLSLSHSPGK light: EIVMTQSPASLSLSQEEKVTITCKASQSVSFAGTGLMHWYQQKPGQAPKLLIYRASNLEAGVPSRFSGSGSGTDFSFTISSLEPEDVAVYYCQQSREYPWTFGQGTKLEIKRNDAQPAVYLFQPSPDQLHTGSASVVCLLNSFYPKDINVKWKVDGVIQDTGIQESVTEQDKDSTYSLSSTLTMSSTEYLSHELYSCEITHKSLPSTLIKSFQRSEC
3 | 43.8 | mAb1, caninized anti-IL31 antibody 34D03, canine IgGA, N434R (antibody) chain 1: EVQLVESGGDLVKPGGSLRLSCVASGFTFSNYGMSWVRQAPGKGLQWVATISYGGSYTYYPDNIKGRFTISRDNAKNTLYLQMNSLRAEDTAMYYCVRGYGYDTMDYWGQGTLVTVSSASTTAPSVFPLAPSCGSTSGSTVALACLVSGYFPEPVTVSWNSGSLTSGVHTFPSVLQSSGLHSLSSMVTVPSSRWPSETFTCNVVHPASNTKVDKPVFNECRCTDTPPCPVPEPLGGPSVLIFPPKPKDILRITRTPEVTCVVLDLGREDPEVQISWFVDGKEVHTAKTQSREQQFNGTYRVVSVLPIEHQDWLTGKEFKCRVNHIDLPSPIERTISKARGRAHKPSVYVLPPSPKELSSSDTVSITCLIKDFYPPDIDVEWQSNGQQEPERKHRMTPPQLDEDGSYFLYSKLSVDKSRWQQGDPFTCAVMHETLQRHYTDLSLSHSPGK chain 2: EIVMTQSPASLSLSQEEKVTITCKASQSVSFAGTGLMHWYQQKPGQAPKLLIYRASNLEAGVPSRFSGSGSGTDFSFTISSLEPEDVAVYYCQQSREYPWTFGQGTKLEIKRNDAQPAVYLFQPSPDQLHTGSASVVCLLNSFYPKDINVKWKVDGVIQDTGIQESVTEQDKDSTYSLSSTLTMSSTEYLSHELYSCEITHKSLPSTLIKSFQRSEC
4 | 10.4 | mAb2 of Table 4A, caninized anti-NGF antibody ZTS-841, canine IgGA, N434H (antibody, also called ID No. 41) heavy: EVQLVESGGDLVKPGGSLRLSCVASGFTFSSHGMHWVRQSPGKGLQWVAVINSGGSSTYYTDAVKGRFTISRDNAKNTVYLQMNSLRAEDTAMYYCAKESVGGWEQLVGPHFDYWGQGTLVIVSSASTTAPSVFPLAPSCGSTSGSTVALACLVSGYFPEPVTVSWNSGSLTSGVHTFPSVLQSSGLHSLSSMVTVPSSRWPSETFTCNVVHPASNTKVDKPVFNECRCTDTPPCPVPEPLGGPSVLIFPPKPKDILRITRTPEVTCVVLDLGREDPEVQISWFVDGKEVHTAKTQSREQQFNGTYRVVSVLPIEHQDWLTGKEFKCRVNHIDLPSPIERTISKARGRAHKPSVYVLPPSPKELSSSDTVSITCLIKDFYPPDIDVEWQSNGQQEPERKHRMTPPQLDEDGSYFLYSKLSVDKSRWQQGDPFTCAVMHETLQHHYTDLSLSHSPGK VL: QSVLTQPTSVSGSLGQRVTISCSGSTNNIGILGASWYQLFPGKAPKLLVYGNGNRPSGVPDRFSGADSGDSVTLTITGLQAEDEADYYCQSFDTTLGAHVFGGGTHLTVL
5 | 147 | mAb2 of Table 4A, caninized anti-NGF antibody ZTS-841, canine IgGA, N434S (antibody, also called ID No. 43) heavy: EVQLVESGGDLVKPGGSLRLSCVASGFTFSSHGMHWVRQSPGKGLQWVAVINSGGSSTYYTDAVKGRFTISRDNAKNTVYLQMNSLRAEDTAMYYCAKESVGGWEQLVGPHFDYWGQGTLVIVSSASTTAPSVFPLAPSCGSTSGSTVALACLVSGYFPEPVTVSWNSGSLTSGVHTFPSVLQSSGLHSLSSMVTVPSSRWPSETFTCNVVHPASNTKVDKPVFNECRCTDTPPCPVPEPLGGPSVLIFPPKPKDILRITRTPEVTCVVLDLGREDPEVQISWFVDGKEVHTAKTQSREQQFNGTYRVVSVLPIEHQDWLTGKEFKCRVNHIDLPSPIERTISKARGRAHKPSVYVLPPSPKELSSSDTVSITCLIKDFYPPDIDVEWQSNGQQEPERKHRMTPPQLDEDGSYFLYSKLSVDKSRWQQGDPFTCAVMHETLQSHYTDLSLSHSPGK VL: QSVLTQPTSVSGSLGQRVTISCSGSTNNIGILGASWYQLFPGKAPKLLVYGNGNRPSGVPDRFSGADSGDSVTLTITGLQAEDEADYYCQSFDTTLGAHVFGGGTHLTVL
6 | 15.1 | mAb2 of Table 4A, caninized anti-NGF antibody ZTS-841, canine IgGA, N434R (antibody, also called ID No. 42) heavy: EVQLVESGGDLVKPGGSLRLSCVASGFTFSSHGMHWVRQSPGKGLQWVAVINSGGSSTYYTDAVKGRFTISRDNAKNTVYLQMNSLRAEDTAMYYCAKESVGGWEQLVGPHFDYWGQGTLVIVSSASTTAPSVFPLAPSCGSTSGSTVALACLVSGYFPEPVTVSWNSGSLTSGVHTFPSVLQSSGLHSLSSMVTVPSSRWPSETFTCNVVHPASNTKVDKPVFNECRCTDTPPCPVPEPLGGPSVLIFPPKPKDILRITRTPEVTCVVLDLGREDPEVQISWFVDGKEVHTAKTQSREQQFNGTYRVVSVLPIEHQDWLTGKEFKCRVNHIDLPSPIERTISKARGRAHKPSVYVLPPSPKELSSSDTVSITCLIKDFYPPDIDVEWQSNGQQEPERKHRMTPPQLDEDGSYFLYSKLSVDKSRWQQGDPFTCAVMHETLQRHYTDLSLSHSPGK VL: QSVLTQPTSVSGSLGQRVTISCSGSTNNIGILGASWYQLFPGKAPKLLVYGNGNRPSGVPDRFSGADSGDSVTLTITGLQAEDEADYYCQSFDTTLGAHVFGGGTHLTVL
7 | 91.5 | mAb2 of Table 4A, caninized anti-NGF antibody ZTS-841, canine IgGB, WT (antibody, also called ID No. 46) heavy: EVQLVESGGDLVKPGGSLRLSCVASGFTFSSHGMHWVRQSPGKGLQWVAVINSGGSSTYYTDAVKGRFTISRDNAKNTVYLQMNSLRAEDTAMYYCAKESVGGWEQLVGPHFDYWGQGTLVIVSSASTTAPSVFPLAPSCGSTSGSTVALACLVSGYFPEPVTVSWNSGSLTSGVHTFPSVLQSSGLYSLSSMVTVPSSRWPSETFTCNVAHPASKTKVDKPVPKRENGRVPRPPDCPKCPAPEMLGGPSVFIFPPKPKDTLLIARTPEVTCVVVDLDPEDPEVQISWFVDGKQMQTAKTQPREEQFNGTYRVVSVLPIGHQDWLKGKQFTCKVNNKALPSPIERTISKARGQAHQPSVYVLPPSREELSKNTVSLTCLIKDFFPPDIDVEWQSNGQQEPESKYRTTPPQLDEDGSYFLYSKLSVDKSRWQRGDTFICAVMHEALHNHYTQESLSHSPGK VL: QSVLTQPTSVSGSLGQRVTISCSGSTNNIGILGASWYQLFPGKAPKLLVYGNGNRPSGVPDRFSGADSGDSVTLTITGLQAEDEADYYCQSFDTTLGAHVFGGGTHLTVL
